We go through six molecules from paper PMC12285236, “Xylanolytic metabolism is regulated by coordination of transcription factors XynR and XylR in extremely thermophilic Caldicellulosiruptorales”.

Data set [1] deals with XynR (Anaerocellum (f. Caldicellulosiruptor) bescii) (UniProt B9MPD1). The experiment in a line: fluorescence polarization. The note with it: 20 mM Tris-HCl, 100 mM NaCl, 0.02% Tween 20, pH 7.4; FP: 5 nM probe, 30 nM-3 uM protein, 22 C; BLI: 100 nM DNA immobilized on streptavidin sensors. On the technique in general: Fluorescence polarisation rises when a labelled molecule tumbles more slowly, as on binding a larger partner.

The target of data set [2] is T1, XylR (Anaerocellum (f. Caldicellulosiruptor) …, UniProt Q44406 1-399).
T1 sequence: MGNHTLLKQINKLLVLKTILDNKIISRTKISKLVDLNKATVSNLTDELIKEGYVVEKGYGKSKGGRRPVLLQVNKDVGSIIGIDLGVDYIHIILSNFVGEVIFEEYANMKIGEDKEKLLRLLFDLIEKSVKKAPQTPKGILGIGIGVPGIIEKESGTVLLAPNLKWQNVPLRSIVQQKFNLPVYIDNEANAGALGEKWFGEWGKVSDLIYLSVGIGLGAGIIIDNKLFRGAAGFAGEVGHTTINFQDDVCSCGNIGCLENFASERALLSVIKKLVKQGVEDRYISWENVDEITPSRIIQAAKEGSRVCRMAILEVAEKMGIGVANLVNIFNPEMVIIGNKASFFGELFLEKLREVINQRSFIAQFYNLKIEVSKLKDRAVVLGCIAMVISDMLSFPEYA
The data set can be described thus: fluorescence polarization; Hill coefficient <1; 20 mM Tris-HCl, 100 mM NaCl, 0.02% Tween 20, pH 7.4; FP: 5 nM probe, 30 nM-3 uM protein, 22 C; BLI: 100 nM DNA immobilized on streptavidin sensors. Particulars: protein: recombinant; tags: C-terminal 6xHis; chain copies: 2; label: 5' 6-FAM on strand 1; blunt.

Data set [3] deals with T1, XylR. The data set can be described thus: BLI; 20 mM Tris-HCl, 100 mM NaCl, 0.02% Tween 20, pH 7.4; FP: 5 nM probe, 30 nM-3 uM protein, 22 C; BLI: 100 nM DNA immobilized on streptavidin sensors. The note with it: protein: recombinant; tags: C-terminal 6xHis; chain copies: 2; label: 5' biotin on strand 1; blunt. A general note: In BLI a coated tip is dipped into the sample, and binding shifts an interference pattern.

One may read the Kd as the concentration at which binding is half-saturated. In data set [1], “ATTGACTAGTAAACGCTTACGATATATT (double strand) [XDL FP probe]” displayed a Kd of 161 nM.
Molecule “ATTTTCATGAAATCGCTTTCCTATCTAA / TTAGATAGGAAAGCGATTTCATGAAAATA [xynMNC FP probe]” came in with a Kd in data set [1] of 150 nM.
Same read-out and setting: then “TAATAATCGAAATCGCTTACAATTCCTG (double strand) [xynR-xylB FP probe]”, with 172 nM.
Molecule “TGAGGTTAGAAAGCGGTTTCAAGCAATT (double strand) [xyl3A FP probe]” registered a Kd in data set [1] of 169 nM.

B1: xynUVW FP probe (dsDNA)
DNA 1: TAAATATATAAATAGTTTGTTTAAGAAATAAACCAAAAGGAGTGATT
DNA 2: AATCACTCCTTTTGGTTTATTTCTTAAACAAACTATTTATATATTTA
Consider B1, for which the Kd in data set [2] was 165 nM.

B2: xylA BLI probe (dsDNA)
DNA 1: ATTATAGATATTAGTTTGTTTAATAAACAAACTAAGTACACGTACT
DNA 2: AGTACGTGTACTTAGTTTGTTTATTAAACAAACTAATATCTATAAT
On to B2, for which the binding result in data set [3] is “binds”.
